Read-outs that look alike come from different tables or passages of the source.
Columns and labels:
integrin αVβ5 = target: T1, integrin αVβ5 (UniProt P06756 31-992; P18084 24-719); experiment: phage ELISA, integrin coated, anti-M13-HRP
T1 construct: Coated on the ELISA plate

integrin αVβ3 = target: T2, integrin αVβ3 (UniProt P06756 31-992; P05106 27-718); experiment: phage ELISA, integrin coated, anti-M13-HRP
T2 construct: Coated on the ELISA plate
T2 sequence (P06756 31-992, chain 1 of 2): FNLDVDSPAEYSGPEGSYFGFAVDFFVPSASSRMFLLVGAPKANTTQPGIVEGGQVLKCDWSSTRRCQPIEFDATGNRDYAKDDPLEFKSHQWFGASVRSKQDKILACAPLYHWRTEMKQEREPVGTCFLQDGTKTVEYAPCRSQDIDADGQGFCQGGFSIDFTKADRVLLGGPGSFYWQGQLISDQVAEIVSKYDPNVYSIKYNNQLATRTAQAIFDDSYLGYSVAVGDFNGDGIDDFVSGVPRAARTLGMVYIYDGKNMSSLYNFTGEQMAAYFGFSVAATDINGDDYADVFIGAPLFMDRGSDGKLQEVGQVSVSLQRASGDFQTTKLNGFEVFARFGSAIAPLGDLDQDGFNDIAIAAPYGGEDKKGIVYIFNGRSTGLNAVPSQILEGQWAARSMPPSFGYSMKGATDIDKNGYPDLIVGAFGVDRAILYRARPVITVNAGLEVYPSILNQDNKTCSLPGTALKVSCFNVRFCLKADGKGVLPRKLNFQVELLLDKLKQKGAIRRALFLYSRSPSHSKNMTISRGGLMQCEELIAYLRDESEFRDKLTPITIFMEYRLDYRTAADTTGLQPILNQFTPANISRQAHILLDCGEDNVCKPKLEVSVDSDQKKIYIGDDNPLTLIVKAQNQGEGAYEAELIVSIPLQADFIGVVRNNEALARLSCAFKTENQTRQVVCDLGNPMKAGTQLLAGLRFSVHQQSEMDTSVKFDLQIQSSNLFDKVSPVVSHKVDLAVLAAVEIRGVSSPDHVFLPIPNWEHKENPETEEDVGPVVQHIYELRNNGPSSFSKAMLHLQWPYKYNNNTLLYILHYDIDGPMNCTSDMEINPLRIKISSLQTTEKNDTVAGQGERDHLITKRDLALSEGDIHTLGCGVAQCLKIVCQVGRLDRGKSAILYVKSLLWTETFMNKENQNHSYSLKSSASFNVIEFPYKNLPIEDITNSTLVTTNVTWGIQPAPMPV
T2 sequence (P05106 27-718, chain 2 of 2): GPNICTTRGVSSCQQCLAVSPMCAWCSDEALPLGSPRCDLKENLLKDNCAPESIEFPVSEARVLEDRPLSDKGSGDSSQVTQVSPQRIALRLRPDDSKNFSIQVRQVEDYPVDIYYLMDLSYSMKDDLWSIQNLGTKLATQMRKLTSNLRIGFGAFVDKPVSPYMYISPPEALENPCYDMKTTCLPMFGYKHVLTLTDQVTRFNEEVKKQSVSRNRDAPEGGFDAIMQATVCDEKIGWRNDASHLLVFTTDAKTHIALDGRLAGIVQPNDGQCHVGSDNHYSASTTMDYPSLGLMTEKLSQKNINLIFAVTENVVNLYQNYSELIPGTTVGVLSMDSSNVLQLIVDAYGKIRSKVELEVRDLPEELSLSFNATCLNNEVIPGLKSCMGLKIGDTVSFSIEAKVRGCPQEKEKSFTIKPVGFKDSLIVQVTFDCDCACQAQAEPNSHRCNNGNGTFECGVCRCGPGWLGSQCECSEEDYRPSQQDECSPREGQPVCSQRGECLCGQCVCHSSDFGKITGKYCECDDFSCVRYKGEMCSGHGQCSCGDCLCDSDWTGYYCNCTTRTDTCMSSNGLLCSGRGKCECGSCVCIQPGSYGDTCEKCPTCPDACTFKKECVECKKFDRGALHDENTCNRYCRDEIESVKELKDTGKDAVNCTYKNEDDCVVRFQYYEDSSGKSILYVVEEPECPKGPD

T1 sequence (P06756 31-992, chain 1 of 2): as the sequence (P06756 31-992, chain 1 of 2) above
T1 sequence (P18084 24-719, chain 2 of 2): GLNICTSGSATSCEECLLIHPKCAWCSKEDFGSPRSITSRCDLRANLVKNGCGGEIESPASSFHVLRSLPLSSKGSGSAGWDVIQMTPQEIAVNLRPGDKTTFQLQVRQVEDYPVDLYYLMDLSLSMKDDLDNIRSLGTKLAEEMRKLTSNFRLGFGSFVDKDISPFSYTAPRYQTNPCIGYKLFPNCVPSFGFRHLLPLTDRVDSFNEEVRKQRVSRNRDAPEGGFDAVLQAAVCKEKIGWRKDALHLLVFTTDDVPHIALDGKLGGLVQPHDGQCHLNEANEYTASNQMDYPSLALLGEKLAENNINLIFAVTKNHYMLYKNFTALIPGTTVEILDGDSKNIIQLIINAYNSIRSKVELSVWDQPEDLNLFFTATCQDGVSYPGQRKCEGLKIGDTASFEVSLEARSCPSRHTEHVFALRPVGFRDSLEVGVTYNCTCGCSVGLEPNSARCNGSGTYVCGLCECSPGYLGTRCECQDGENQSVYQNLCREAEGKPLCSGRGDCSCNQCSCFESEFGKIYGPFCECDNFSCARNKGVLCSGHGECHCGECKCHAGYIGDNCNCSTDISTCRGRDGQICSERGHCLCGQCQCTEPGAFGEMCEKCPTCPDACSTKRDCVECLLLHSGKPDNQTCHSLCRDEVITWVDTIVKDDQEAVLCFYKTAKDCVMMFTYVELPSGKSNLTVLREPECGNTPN

B1: M13 phage pKK94 displaying MICA α3 domain with loop 3.3 in loop 1 (designed binder, not shown: large carriers)
chain: TVPPMVNVTRVPRGDSDLTVTCRASGFYPWNITLSWRQDGVSLSHDTQQWGDVLPDGNGTYQTWVATRICQGEEQRFTCYMEHSGNHSTHPVPSGK
Integrin αVβ5
  signal: 2.84 OD
Integrin αVβ3
  signal: 1.07 OD

B2: M13 phage pKK96 displaying MICA α3 domain with loop 5.1 in loop 1 (designed binder, not shown: large carriers)
chain: TVPPMVNVTVTRGDTFTQSVTCRASGFYPWNITLSWRQDGVSLSHDTQQWGDVLPDGNGTYQTWVATRICQGEEQRFTCYMEHSGNHSTHPVPSGK
Integrin αVβ5
  signal: 2.42 OD
Integrin αVβ3
  signal: 1.64 OD

B3: M13 phage pKK98 displaying MICA α3 domain with loop 5.3 in loop 1 (designed binder, not shown: large carriers)
chain: TVPPMVNVTHLARGDDLTYVTCRASGFYPWNITLSWRQDGVSLSHDTQQWGDVLPDGNGTYQTWVATRICQGEEQRFTCYMEHSGNHSTHPVPSGK
Integrin αVβ5
  signal: 1.48 OD
Integrin αVβ3
  signal: 1.22 OD

B4: M13 phage pKK95 displaying MICA α3 domain with loop 3.4 in loop 1 (designed binder, not shown: large carriers)
chain: TVPPMVNVTRSARGDSDHRVTCRASGFYPWNITLSWRQDGVSLSHDTQQWGDVLPDGNGTYQTWVATRICQGEEQRFTCYMEHSGNHSTHPVPSGK
Integrin αVβ5
  signal: 0.232 OD
Integrin αVβ3
  signal: 0.345 OD

B5: M13 phage pKK106 displaying wild type MICA α3 domain fused to pIII (other)
chain: TVPPMVNVTRSEASEGNITVTCRASGFYPWNITLSWRQDGVSLSHDTQQWGDVLPDGNGTYQTWVATRICQGEEQRFTCYMEHSGNHSTHPVPSGK
notes: also called WT; not shown: M13 phage capsid protein pIII, C-terminal portion, fused at codon position 198
Integrin αVβ5
  signal: 0 OD
Integrin αVβ3
  signal: 0 OD

B6: M13 phage pKK136 displaying MICA α3 domain with extended 5.1sp in loop 1 and extended 3.2sp in loop 3 (designed binder, not shown: large carriers)
chain: TVPPMVNVTSGGSGGGSVTRGDTFTQSSGGSGGGVTCRASGFYPWNITLSWRQDGVSLSHDTQQWGDVLPDGNGTYQTWVATRISGGSGGGSTSRGDHPRTQSGGSGGGCYMEHSGNHSTHPVPSGK
Integrin αVβ5
  signal: 4.28 OD
Integrin αVβ3
  signal: 2.46 OD

B7: M13 phage pKK138 displaying MICA α3 domain with extended 5.1sp in loop 1 and extended 5.3sp in loop 3 (designed binder, not shown: large carriers)
chain: TVPPMVNVTSGGSGGGSVTRGDTFTQSSGGSGGGVTCRASGFYPWNITLSWRQDGVSLSHDTQQWGDVLPDGNGTYQTWVATRISGGSGGGSHLARGDDLTYSGGSGGGCYMEHSGNHSTHPVPSGK
Integrin αVβ5
  signal: 2.75 OD
Integrin αVβ3
  signal: 0.886 OD

B8: M13 phage pKK139 displaying MICA α3 domain with extended 5.1sp in loop 1 and extended 5.1spNH in loop 3 (designed binder, not shown: large carriers)
chain: TVPPMVNVTSGGSGGGSVTRGDTFTQSSGGSGGGVTCRASGFYPWNITLSWRQDGVSLSHDTQQWGDVLPDGNGTYQTWVATRISGGSGGGSVTRGDTFTQSSGGSGGGCYMEHSGNHSTHPVPSGK
Integrin αVβ5
  signal: 5.36 OD
Integrin αVβ3
  signal: 2.48 OD

B9: M13 phage pKK100 displaying MICA α3 domain with extended loop 3.2sp in loop 1 (designed binder, not shown: large carriers)
chain: TVPPMVNVTSGGSGGGSTSRGDHPRTQSGGSGGGVTCRASGFYPWNITLSWRQDGVSLSHDTQQWGDVLPDGNGTYQTWVATRICQGEEQRFTCYMEHSGNHSTHPVPSGK
Integrin αVβ5
  signal: 0.186 OD
Integrin αVβ3
  signal: 0.201 OD

B10: M13 phage pKK103 displaying MICA α3 domain with extended loop 5.3sp in loop 1 (designed binder, not shown: large carriers)
chain: TVPPMVNVTSGGSGGGSHLARGDDLTYSGGSGGGVTCRASGFYPWNITLSWRQDGVSLSHDTQQWGDVLPDGNGTYQTWVATRICQGEEQRFTCYMEHSGNHSTHPVPSGK
Integrin αVβ5
  signal: 0.491 OD
Integrin αVβ5; record 2
  signal: 0.814 OD
Integrin αVβ3
  signal: 0.688 OD
Integrin αVβ3; record 2
  signal: 0.587 OD

B11: M13 phage pKK101 displaying MICA α3 domain with extended loop 3.3sp in loop 1 (designed binder, not shown: large carriers)
chain: TVPPMVNVTSGGSGGGSRVPRGDSDLTSGGSGGGVTCRASGFYPWNITLSWRQDGVSLSHDTQQWGDVLPDGNGTYQTWVATRICQGEEQRFTCYMEHSGNHSTHPVPSGK
Integrin αVβ5
  signal: 1.23 OD
Integrin αVβ3
  signal: 1.49 OD

B12: M13 phage pKK102 displaying MICA α3 domain with extended loop 5.1sp in loop 1 (designed binder, not shown: large carriers)
chain: TVPPMVNVTSGGSGGGSVTRGDTFTQSSGGSGGGVTCRASGFYPWNITLSWRQDGVSLSHDTQQWGDVLPDGNGTYQTWVATRICQGEEQRFTCYMEHSGNHSTHPVPSGK
Integrin αVβ5
  signal: 0.771 OD
Integrin αVβ5; record 2
  signal: 1.5 OD
Integrin αVβ3
  signal: 1.02 OD
Integrin αVβ3; record 2
  signal: 1.45 OD

B13: M13 phage pKK107 displaying MICA α3 domain with tight T-3.1 in loop 1 (designed binder, not shown: large carriers)
chain: TVPPMVNTSRGDHPRTQCRASGFYPWNITLSWRQDGVSLSHDTQQWGDVLPDGNGTYQTWVATRICQGEEQRFTCYMEHSGNHSTHPVPSGK
Integrin αVβ5
  signal: 1.49 OD
Integrin αVβ3
  signal: 0.999 OD

B14: M13 phage pKK110 displaying MICA α3 domain with tight T-5.1 in loop 1 (designed binder, not shown: large carriers)
chain: TVPPMVNVTRGDTFTQSCRASGFYPWNITLSWRQDGVSLSHDTQQWGDVLPDGNGTYQTWVATRICQGEEQRFTCYMEHSGNHSTHPVPSGK
Integrin αVβ5
  signal: 2.56 OD
Integrin αVβ3
  signal: 1.49 OD

B15: M13 phage pKK108 displaying MICA α3 domain with tight T-3.5 in loop 1 (designed binder)
chain: TVPPMVNGSRGDSLIMHCRASGFYPWNITLSWRQDGVSLSHDTQQWGDVLPDGNGTYQTWVATRICQGEEQRFTCYMEHSGNHSTHPVPSGK
notes: α3 amplified from pKK53; also called 1-T-3.5; not shown: M13 phage capsid protein pIII, C-terminal portion, fused at codon position 198
Integrin αVβ5
  signal: -0.204 OD
Integrin αVβ3
  signal: -0.09 OD

B16: M13 phage pKK111 displaying MICA α3 domain with tight T-5.3 in loop 1 (designed binder, not shown: large carriers)
chain: TVPPMVNHLARGDDLTYCRASGFYPWNITLSWRQDGVSLSHDTQQWGDVLPDGNGTYQTWVATRICQGEEQRFTCYMEHSGNHSTHPVPSGK
Integrin αVβ5
  signal: 0.657 OD
Integrin αVβ3
  signal: 0.707 OD

B17: M13 phage pKK109 displaying MICA α3 domain with tight T-3.3 in loop 1 (designed binder, not shown: large carriers)
chain: TVPPMVNRVPRGDSDLTCRASGFYPWNITLSWRQDGVSLSHDTQQWGDVLPDGNGTYQTWVATRICQGEEQRFTCYMEHSGNHSTHPVPSGK
Integrin αVβ5
  signal: 0.167 OD
Integrin αVβ3
  signal: 0.23 OD

B18: M13 phage pKK104 displaying MICA α3 domain with extended loop 3.2sp in loop 3 (designed binder, not shown: large carriers)
chain: TVPPMVNVTRSEASEGNITVTCRASGFYPWNITLSWRQDGVSLSHDTQQWGDVLPDGNGTYQTWVATRISGGSGGGSTSRGDHPRTQSGGSGGGCYMEHSGNHSTHPVPSGK
Integrin αVβ5
  signal: 1.12 OD
Integrin αVβ3
  signal: 0.791 OD

B19: M13 phage pKK105 displaying MICA α3 domain with extended loop 3.3sp in loop 3 (designed binder, not shown: large carriers)
chain: TVPPMVNVTRSEASEGNITVTCRASGFYPWNITLSWRQDGVSLSHDTQQWGDVLPDGNGTYQTWVATRISGGSGGGSRVPRGDSDLTSGGSGGGCYMEHSGNHSTHPVPSGK
Integrin αVβ5
  signal: 1.11 OD
Integrin αVβ3
  signal: 1.33 OD

B20: M13 phage pKK112 displaying MICA α3 domain with tight T-AMY (loop 1 from tendamistat) in loop 1 (designed binder, not shown: large carriers)
chain: TVPPMVNYQSWRYSQCRASGFYPWNITLSWRQDGVSLSHDTQQWGDVLPDGNGTYQTWVATRICQGEEQRFTCYMEHSGNHSTHPVPSGK
Integrin αVβ5
  signal: 0.515 OD
Integrin αVβ3
  signal: 0.46 OD

B21: M13 phage pKK97 displaying MICA α3 domain with loop 5.2 in loop 1 (designed binder, not shown: large carriers)
chain: TVPPMVNVTRGDTFTQSVTCRASGFYPWNITLSWRQDGVSLSHDTQQWGDVLPDGNGTYQTWVATRICQGEEQRFTCYMEHSGNHSTHPVPSGK
Integrin αVβ5
  signal: 2.59 OD
Integrin αVβ3
  signal: 1.55 OD

Source: EP2658867B1 (Avidbiotics Corp., dated 2018)
